{
  "source": "paper PMC11906611",
  "key": {"[1]": {"molecular_target": "FruR labelled with NT-647 (wild type, for MST) (Faecalibacterium prausnitzii A2-165)", "assay": "MST"}, "[2]": {"molecular_target": "FruR labelled with NT-647 (wild type, for MST) (Faecalibacterium prausnitzii A2-165)", "assay": "MST", "remark": "listed apart in the source"}},
  "note": "Read-outs that look alike come from different tables or passages of the source.",
  "data": [
    {"substance": "HPr2, unlabeled (wild type, for MST) (natural protein)", "values": [
      {"measurement": "Kd", "setting": "[1]", "result": 1.07, "unit": "nM"},
      {"measurement": "Kd", "setting": "[2]", "result": 448, "unit": "nM"}
    ]}
  ]
}
